From the nanobody polyreactivity screen of Harvey et al. (2022)

Assay: yeast display, Sf9 membrane polyspecificity reagent, FACS + sequencing; frameworks hold sequencing errors
Summary of the method: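 Galactose-induced (36–48 hours) yeast carrying a synthetic nanobody display library were exposed to 10% biotinylated, detergent-solubilized Sf9 membrane reagent at 4 °C for 1 hour. FACS followed streptavidin microbead enrichment, using low and high (top ~1%) gates for expression (anti-HA) and reagent binding (streptavidin). Colony PCR, MiSeq 2 × 250 sequencing and CDR-length filtering followed. Labels for polyreactivity reflect the gate of origin.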

Sequence	polyreactivity (PSR sort gate)
QVQLVESGGGLVQAGGRLRLTCAASGSTFPTYAMGWYRQAPGKERELVAAISTRGGSTYYADSVKGRFTISRDNAKNTVYLQMNSLKPEDTAVYYCATGKSLGRYHYEYWGQGSQVTVSS	low polyreactivity
QVQLVESWGGLVQAGGSLRLSCAASGFTFTWYAMGWSRQAPGKERELLAAITSSGGSTYYADSVKGRFTISRDNAKNTVYLQMNSLKPEDTAVYYCAAKSYWSGYFVGYEYWGQGTQVTVSS	high polyreactivity
QVQLVESGGGLVQAGGSLRLTCAASGSTFSRYVIGWYRQEPGKERELVAAISRSGSTYYADSVKGRFTISRDNAKNTVYLQMNSLKPEDTAVYYCAASGSKSAGYGYWGQGTQVTVSS	high polyreactivity
QVQLVQSGGGLVQARGILRLSCPPSGINFWYNAMGWYSQAQGKERELVASISTGGRTYYADSVKGRFTFSRDNAKNTVYLQMNSLKPVDTAVYYCAAASRVGFLYYYWGQGSQVTVSS	low polyreactivity
QVQLVESGGGLVQAGGSLRLSCAASGRIFDGYAMGWYRQAPGKESELVATIDVSGGRTTYADSVKGRFTISRDNAKNTVYLQMNSLKPEDTAVYYCNVDYYWSSGGTDYDYWGQGTQVTVSS	low polyreactivity
QVQLVESGGGLVQAGGSLRLSCAASGSIFRFYAMGWYRQAPGTERELVAAISSSGSSTYYADSVKGRFTISRDNAMNTVYLQMNSLKPEDTAVYYCNARLGWSRAWSMDSWGQGTQVTVSS	high polyreactivity
QVQLVESGGGLVQAGGSLRLSCAASGFTFRFYAMGWYRQAPGKETELVAAISSSGSRTYYADSVKGRFTISRDTAKNTVYFQMHSLKPEDTAVYYCNTVTSQDRYDYWGQGTHVTVSS	high polyreactivity
QVQLVESGGGLVQAGGSLRLSCAASGFIFGGNAMGWYRQAPGKERELVAAISKSGGRTYYADSVKGRFTISRDNAKNTVYLQMNSLKPEDTAVYYCAAVPGRTAEDYGEDYWGQGTQVTVSS	high polyreactivity
QFQLVESGGGLVQAGGSLRLSCAASGRIFYLYAMGWYRQAPGKERELVAGITSGGRTNYADSVKGRFTISRDNGKNTVFLQMNSLKPEDSAVYYCAAGSLRYKYDYWGQGTQVTVSS	high polyreactivity
QDQLVESGGGLVQAGGSLRLSCAGSGSILDGNAMLWYRQAPGKERELVAGISGDSGSTYYADSVKGRFTISRDNAKNTVYLQMNSLKPEDTAVDYCAVTWGARTDQWPLRVFVGHDYWGQGTQLTVSS	low polyreactivity
QFQLVDSGGGLVQPGGSLRLRCAASGLTFQQYAMGWYRQAPGKERELVAAITSDGASTNYADSVKGRFTISRDNAKNTVYLQMNSLKPEDTAVYYCAARRRSRQYRYDYWGQGTQVTVSS	high polyreactivity
QVQLVESGGGLVQAGGSLRLSCAASGRTFYPYAMGWYRQAPGKEREFVAAIRWRGGSTRYADSVKGRFTISRDNAKNTVYLQMNSLKPEDTAVYYCAADLRLGLNYYYWGQGTQVTVSS	high polyreactivity
QVQLVESGGGLVQAGGSLRLSCAASGYTFSAYAMGCYRQAPGKERELVASITRRRTNYAESVKGRFTISRDNAKNTVYLQMNSLKPEDTAVYYCAATNYVRQYATYDYWGQGTQVTVSS	high polyreactivity
HVQLQESGGGLVQAGGSLRLSSAASATITYSRNMGWYRQAPGKELELVAAIDRGAITYYADSVKGRFTISRDNAKNTVYLHIYSLKPEDTAVYYCAAVYHDRWDHRFWGQGTQVTVSS	high polyreactivity
QVQLVESGGGLVQAGGSLRLSCAASGSIFGDYARGWYRQAPGKERELVAAISRSGGSTSYADSVKGRFTISRDNAKNTVYLQMNSLKPEDSAVYYCAAYWQRFGYDYWGQGTQVSVSS	low polyreactivity
QVQLVESGGGLVQAGGSLRLSCAASGRIIDIYAMGWYRQAPGKERELVAAITSGGSTYYADSVKGRFTISRDNAKNTVYLQMNSLKPEDTAVYYCAARLFADYWGQGTQVTVSS	low polyreactivity
QVQLLESGGGLVQAGGSLRLSCAASGRTFDWNMGWYRQAPGKERELVAGITFSVDSTYYADSVKGRFTISRDNAKNTVYLQMNSLKPEDTAYWGQGTQVSVSS	low polyreactivity
QVQLVESGGGLVQAGGSLRLSCAASGSTFTYYAMGWYRQAPGKERELVAAISNSGTSTYYADSVKGRFTISRDNAKNTVYLQMNSLKPEDTAVYYCNAYSDLFGSYTDLGEYDYWGQGTQVTVSS	low polyreactivity
QVQLVESGGGLVQAGGSLRLSCAASGRTFVTNAMGWYRQAPGKERELVATIRFSGGGTYYAVSVKGRFTISRDNAKNTVYLQMNSLKPEDTAVYYCNADSIDPFLYDYWGQGTQVTVSS	low polyreactivity
QVQLVESGGGLVQAGGSLRLSCAASGRILPRNAMGWYRQAPGKERELVAGISSEGSTNYADSVKGRFTISRDNAKYTVYLQMNSLKPEDSAVYYCAADGVYDPNLYGYWGQGTQVNVSS	low polyreactivity
QVQLVESGGGLVQAGGSLRLSCAASGRTFSINAMGWYRQAPGKEREMVADITKRGSTYYADSVKGRFTISRDNAKNTVYLQMNSLKREDTAVYYCNARYRGRVYDRFGYWGQGTQVTVSS	high polyreactivity
QVQLVESGGGLVQVGGSLRLSCAASGRTFWWYAMGWYRQAPGKERELVAAISRGSTNYADSVKGRFTISRDNAKNTVYLQMNSLKPEDTAVYYCNAVSLYQSHDYDYWGQGTQVTVSS	low polyreactivity

Sequence	polyreactivity (PSR sort gate)
QVQLVESGGGLVQAGGSLRLSCAASGSIFGKYAMGWYRQAPGKERELVAAISKRGGSTYYADSVKGRFTISRDNAKNTVYLQMNSLKPEDTAVYYCAATPVYSGPYDYWGQGTQVTVSS	high polyreactivity
QVQLVESGGGLVQPGGSLRLSCAASGSIFYRNAMGWYRQAPGKERELVAAITWSGVNTYYADSVKGRFTISRDNAKNTVYLQMNSLKPEDTAVYYCAVPSRYWLNRGFDYWGQGTQVTVSS	low polyreactivity
QVQLVESGGGLVQAGGSLRLSCAASGSIFLGSVMVWYRQAPGKERELVATITGNGDGTYYADSVKGRFTISRDKAKNTVYLQMNSLKPADTAVYYCAADRSGPGYDYWGQGTQVTVSS	low polyreactivity
QVQLVESGGGLVQAGGSLRLRGAASGFTYLYYAMGWYRQAPGKERELVAAITWSGDSTYYADSVKGRFTISRDNAKNTVYLQMNSLKPEDTAVYYCANGGVTFGTVVRGVDGDYWGQGTQVTVSS	low polyreactivity
QVQLVESGGGLVQAGGSLRLSCAASGFIFDYYAMGWYRQAPGKERELVAAISGRGGSTYYADSVKGRFTISRDNAKNTVYLQMNSLKPEDTAVYYCAKGVERYTYGSYWYDYWGQGTQVTVSS	high polyreactivity
QVQLVESGGGLVQAGGSLRLSCAASGSTIPSYAMGWYRQATGKERELVASITYSDGTTRYADSVKGRFTISRDYAKNTVYFQMYSLKPEDTAVYYCNAVYYREGMDYWGQGTQVSVSS	low polyreactivity
QVQLVESGGGLVQAGGSLRLSCAASGRTLSRYAMGWYRQAPGKEREFVAGISASGGRTYYADSVKGRFTISRDNAKNTVYLQMNSLKPEDTAVYYCAAQLPWAGGKYDYWGQGTQVTVSS	high polyreactivity
QVQLVESGGGLVQAGGSRSLSCAASGRTFTLNVMGWYRQAPGKERELVAAISTSSGRTYYADSVKGRFTISRDNAKNTVYLQMNSLKPEDTAVYYCNAVAHRQAQGDWGQGTQVTVSS	low polyreactivity
QVQLVESGGGLVQAGGSLRLSCAASGFNFGGYAMGWYRQAPGKERELVARITRSGGSTYYADSVKGRFTISRDNAKNTVYLQMNSLKPEDTAVYYCNADTPPNPYYYWGQGTQVTVSS	low polyreactivity
QVQLVESGGGLVQAGGSLRLSCAASGRTFYRNVMGWYRQAPGKERELVAAISSRGGSTYYADSVKGRFTISRDNAKNTVYLQMNSLKPEDTAVYYCAAPRASGYYWGQGTQVTVSS	high polyreactivity
QVQLVDSGGGLVQAGGSLRLSCAASGRTFVPYAMGWYRQAPGKERELVAAISSGGDTNYADSVKGRFTISRDNAKNTVYLQMTSLKPEDTAVYYCNADSYYYVYGYDMGYWGQGTQVTVSS	low polyreactivity
QVQLVESGGGLVQAGGSLRLSCAASGRTSVKYAMGWYRQAPGKERELVAAITYRGSSTYYADSVKGRFTISRDNAKNTVYLQMNSLKPEDTAVYYCAARPPLSGRYGYYYWGQGTQVTVSS	high polyreactivity
QGQLVESRGGLVQAGGSLRLSCAASGRTFYYYGMGWYIQAPGKERELVATINSGASTYYADSVKGRFTISRDNAKNTVYLQINSLKPEDTAVYYCDAAKENGKYDYWGQGTQVTVSS	high polyreactivity
QVHLQESGGLVQAGGLRLSCAASGSVSYQEAMGWYPQAPGKERELVATISFGANTNYADSVKGRFTISRDNAKNTVYLQRNCLKPEDTAVYYCAAESLFDDYYGYWGQGTQVTVSS	low polyreactivity
QVQLVESGGGLVQAGGRLRLSCAASGRTFIGYAMGWSRQAPGKERELVAAISSTGGSTYYADSVKGRFTISRDNAKNTVYLQMNSLKPEDTAVYYCATDADRPPRTPDISYVSNFDYWGQGTQVTVSS	low polyreactivity
QVQLVESGGGLVQAGGSLRLSCAPSGLTFVGYAMGWYRQAPGKERELVAAISGVGTTNYADSVKGRFTISRDNAKNTVYLQMNSLKPEDTAVYYCATAPYPVPYRLYDYWGQGTQVTVSS	low polyreactivity
QVQLVESGGGLVQAGGSLRLSCAASGSTFFYYAMGWYRQAPGKERELVAAISGGGGDTTYADSVKGRFTISRDNAKNTVYLQMNSLKPEDTAVYYCAAVPGSFGSGIFDYWGQGTQATVSS	low polyreactivity
QVQLVESGGGLVQAGGSLRLSCAASGFIFTRYAMGWYRQAPGKERELVATITSGGSTNYADSVKGRFTISRDNAKNTVYLQMNSLKPEDTAVYYCTARWTGSYTSTGFRRRFDYWGQGTQVTVSS	high polyreactivity
QVQLVESGGGLVQAGGSLRLSCAASGRTLGPNAMGWYRQAPGKERELVAGITGRGGITYYTDSEKGRFTISRDNAKNTVYLQMNSLKPEDTAVYYCAARRYRFAGDYRMYYWGQGTQVTVSS	high polyreactivity
QVQLVESGGGLVQAGGSLRLSCAASGFIFRSYVMGWYRQAPGKEMEFVAVITSSGGRTYYADSVKGRFTISRDNAKNTVYLQMNSLKPEDTAVYYCAATRRYPPRRVWYDYWGQGTQVTVSS	high polyreactivity
QVQLVESGGGLVQAGGSLRLSCAASGRIFRYNIMGWYRPAPGKERELVAAIRQIGGSTYYADSVKGRFTISRDNAKNTVYLQMNSLKPEDTAVYYCAADSTVEATPFFVEYDYWGQGTQVTVSS	low polyreactivity
